Data from publication PMC9352680, “A comprehensive thermodynamic model for RNA binding by the Saccharomyces cerevisiae Pumilio protein PUF4”.

T1: PUF4 RNA-binding domain (Saccharomyces cerevisiae, UniProt P25339 537-888)
T1 sequence: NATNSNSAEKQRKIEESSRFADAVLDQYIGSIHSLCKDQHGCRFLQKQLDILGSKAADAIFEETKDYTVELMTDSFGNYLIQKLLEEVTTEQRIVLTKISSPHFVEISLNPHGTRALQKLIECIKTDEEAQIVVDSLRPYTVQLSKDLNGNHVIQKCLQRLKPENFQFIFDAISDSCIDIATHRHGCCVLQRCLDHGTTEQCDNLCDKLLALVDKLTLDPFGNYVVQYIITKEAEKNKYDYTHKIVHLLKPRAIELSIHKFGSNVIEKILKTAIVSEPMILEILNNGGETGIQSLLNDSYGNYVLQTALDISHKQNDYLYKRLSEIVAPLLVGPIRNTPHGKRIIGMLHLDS


Target: T1, PUF4 RNA-binding domain
Assay: Mg; RNA-MaP; 20 mM Na-HEPES pH 7.4, 30 mM KOAc, 0.75 mM MgCl2, 0.1% Tween-20, 5% glycerol, 0.1 mg/mL BSA, 2 mM DTT; 25 C; 0.0125-409.6 nM protein
Settings: tags: N-His6-TEV cleaved; C-SNAP kept, Cy3B-labelled; label: tethered on chip by stalled RNA polymerase

Binder | Kd [nM]
Id_ii_S2_P3E.3_K3.2_C3.2_[C-2A]_[T-1G]_H3.2_A3.1_F3.1_T3.2_[T9A]_[A10C] (ssRNA) RNA: UUUGAUUAAUAUGAUAUCGUUCUUUCUAGUAUAUAUAACUUCUUUCUCGAUAUCAUAUUAAUCUUU | 1960
Id_ii_S2_P3E.3_K3.2_C3.2_[C-2T]_H3.2_A3.1_F3.1_T3.2_[T9A]_[A10T] (ssRNA) RNA: UUUGAUUAAUAUGAUAUCGUUCUUUCUUUUAUAUAUAAUUUCUUUCUCGAUAUCAUAUUAAUCUUU | 439
Id_ii_S2_P3E.3_K3.2_C3.2_[C-2T]_H3.2_A3.1_F3.1_T3.2_[T9A]_[A10C] (ssRNA) RNA: UUUGAUUAAUAUGAUAUCGUUCUUUCUUUUAUAUAUAACUUCUUUCUCGAUAUCAUAUUAAUCUUU | 262
Id_ii_S2_P3E.3_K3.2_C3.2_[C-2A]_H3.2_A3.1_F3.1_T3.2_[T9A]_[A10T] (ssRNA) RNA: UUUGAUUAAUAUGAUAUCGUUCUUUCUAUUAUAUAUAAUUUCUUUCUCGAUAUCAUAUUAAUCUUU | 531
Id_ii_S2_P3E.3_K3.2_C3.2_[C-2T]_H3.2_A3.1_F3.1_T3.2_[T9A] (ssRNA) RNA: UUUGAUUAAUAUGAUAUCGUUCUUUCUUUUAUAUAUAAAUUCUUUCUCGAUAUCAUAUUAAUCUUU | 925
Id_ii_S2_P3E.3_K3.2_C3.2_[T-1C]_H3.2_A3.1_F3.1_T3.2_[T9C]_[A10T] (ssRNA) RNA: UUUGAUUAAUAUGAUAUCGUUCUUUCUCCUAUAUAUACUUUCUUUCUCGAUAUCAUAUUAAUCUUU | 120
Id_ii_S2_P3E.3_K3.2_C3.2_[T-1C]_H3.2_A3.1_F3.1_T3.2_[T9C]_[A10C] (ssRNA) RNA: UUUGAUUAAUAUGAUAUCGUUCUUUCUCCUAUAUAUACCUUCUUUCUCGAUAUCAUAUUAAUCUUU | 245
Id_ii_S2_P3E.3_K3.2_C3.2_[T-1G]_H3.2_A3.1_F3.1_T3.2_[T9A]_[A10G] (ssRNA) RNA: UUUGAUUAAUAUGAUAUCGUUCUUUCUCGUAUAUAUAAGUUCUUUCUCGAUAUCAUAUUAAUCUUU | 573
Id_ii_S2_P3E.3_K3.2_C3.2_[C-2T]_H3.2_A3.1_F3.1_T3.2_[A10T] (ssRNA) RNA: UUUGAUUAAUAUGAUAUCGUUCUUUCUUUUAUAUAUAUUUUCUUUCUCGAUAUCAUAUUAAUCUUU | 78.5
Id_ii_S2_P3E.3_K3.2_C3.2_[C-2A]_[T-1G]_H3.2_A3.1_F3.1_T3.2_[T9C]_[A10C] (ssRNA) RNA: UUUGAUUAAUAUGAUAUCGUUCUUUCUAGUAUAUAUACCUUCUUUCUCGAUAUCAUAUUAAUCUUU | 1900
Id_ii_S2_P3E.3_K3.2_C3.2_[C-2A]_[T-1C]_H3.2_A3.1_F3.1_T3.2_[T9C]_[A10C] (ssRNA) RNA: UUUGAUUAAUAUGAUAUCGUUCUUUCUACUAUAUAUACCUUCUUUCUCGAUAUCAUAUUAAUCUUU | 245
Id_ii_S2_P3E.3_K3.2_C3.2_[C-2T]_H3.2_A3.1_F3.1_T3.2_[T9G]_[A10T] (ssRNA) RNA: UUUGAUUAAUAUGAUAUCGUUCUUUCUUUUAUAUAUAGUUUCUUUCUCGAUAUCAUAUUAAUCUUU | 253
Id_ii_S2_P3E.3_K3.2_C3.2_[C-2A]_[T-1C]_H3.2_A3.1_F3.1_T3.2_[T9C]_[A10G] (ssRNA) RNA: UUUGAUUAAUAUGAUAUCGUUCUUUCUACUAUAUAUACGUUCUUUCUCGAUAUCAUAUUAAUCUUU | > 2300
Id_ii_S2_P3E.3_K3.2_C3.2_[T-1C]_H3.2_A3.1_F3.1_T3.2_[T9C] (ssRNA) RNA: UUUGAUUAAUAUGAUAUCGUUCUUUCUCCUAUAUAUACAUUCUUUCUCGAUAUCAUAUUAAUCUUU | 84.9
Id_ii_S2_P3E.3_K3.2_C3.2_[C-2A]_H3.2_A3.1_F3.1_T3.2_[T9C]_[A10T] (ssRNA) RNA: UUUGAUUAAUAUGAUAUCGUUCUUUCUAUUAUAUAUACUUUCUUUCUCGAUAUCAUAUUAAUCUUU | 214
Id_ii_S2_P3E.3_K3.2_C3.2_[T-1C]_H3.2_A3.1_F3.1_T3.2_[T9G]_[A10T] (ssRNA) RNA: UUUGAUUAAUAUGAUAUCGUUCUUUCUCCUAUAUAUAGUUUCUUUCUCGAUAUCAUAUUAAUCUUU | 718
Id_ii_S2_P3E.3_K3.2_C3.2_[C-2A]_H3.2_A3.1_F3.1_T3.2_[T9A] (ssRNA) RNA: UUUGAUUAAUAUGAUAUCGUUCUUUCUAUUAUAUAUAAAUUCUUUCUCGAUAUCAUAUUAAUCUUU | 693
Id_ii_S2_P3E.3_K3.2_C3.2_[C-2A]_[T-1C]_H3.2_A3.1_F3.1_T3.2_[T9G]_[A10C] (ssRNA) RNA: UUUGAUUAAUAUGAUAUCGUUCUUUCUACUAUAUAUAGCUUCUUUCUCGAUAUCAUAUUAAUCUUU | 1590
Id_ii_S2_P3E.3_K3.2_C3.2_[C-2T]_[T-1A]_H3.2_A3.1_F3.1_T3.2_[A10T] (ssRNA) RNA: UUUGAUUAAUAUGAUAUCGUUCUUUCUUAUAUAUAUAUUUUCUUUCUCGAUAUCAUAUUAAUCUUU | 83.4
Id_ii_S2_P3E.3_K3.2_C3.2_[T-1C]_H3.2_A3.1_F3.1_T3.2_[T9A]_[A10G] (ssRNA) RNA: UUUGAUUAAUAUGAUAUCGUUCUUUCUCCUAUAUAUAAGUUCUUUCUCGAUAUCAUAUUAAUCUUU | 739
Id_ii_S2_P3E.3_K3.2_C3.2_[T-1G]_H3.2_A3.1_F3.1_T3.2_[T9G]_[A10C] (ssRNA) RNA: UUUGAUUAAUAUGAUAUCGUUCUUUCUCGUAUAUAUAGCUUCUUUCUCGAUAUCAUAUUAAUCUUU | 108
Id_ii_S2_P3E.3_K3.2_C3.2_[C-2A]_[T-1C]_H3.2_A3.1_F3.1_T3.2_[A10C] (ssRNA) RNA: UUUGAUUAAUAUGAUAUCGUUCUUUCUACUAUAUAUAUCUUCUUUCUCGAUAUCAUAUUAAUCUUU | 183
UCUCUUUGUAUUAUUGUCUCUU (ssRNA) [Ia_S1_P5E.1_K5.1_C5.1_H5.1_A5.1_F5.1_[A10G]_T5.1] | 14.8
